Data on twelve molecules can be found in patent publication US20260001953A1 (TWIST BIOSCIENCE, published 2026).

B1: CD117-15 (antibody, human IgG1, kappa, V domains shown)
VH: EVQLLESGGGLVQPGGSLRLSCAASGFTFSDYPMSWVRQAPGKGLEWVSAIGGSGGDTYYADSVKGRFTISRDNSKNTLYLQMNSLRAEDTAVYYCARGAYDGEGFDYWGQGTLVTVSS
VL: DIQMTQSPSSLSASVGDRVTITCRTSQSIGSYLNWYQQKPGKAPKLLIYSASRLESGVPSRFSGSGSGTDFTLTISSLQPEDFATYYCQQTYNTPWTFGGGTKVEIKR
notes: detected with anti-human IgG in FACS
B2: CD117-3 (antibody, human IgG1, kappa, V domains shown)
VH: EVQLLESGGGLVQPGGSLRLSCAASGFSFSSYAMSWVRQAPGKGLEWVSAISGTGGNTYYADSVKGRFTISRDNSKNTLYLQMNSLRAEDTAVYYCARRNDFWSDAFDIWGQGTLVTVSS
VL: DIQMTQSPSSLSASVGDRVTITCRASQNIYTYLNWYQQKPGKAPKLLIYDASSLHSGVPSRFSGSGSGTDFTLTISSLQPEDFATYYCQQSSSTPYTFGGGTKVEIKR
notes: as for B1
B3: SIGLEC-8-31 (antibody, human IgG1, kappa, V domains shown)
VH: EVQLLESGGGLVQPGGSLRLSCAASGFTFSTDAMSWVRQAPGKGLEWVSTVSGSGASTYYADSVKGRFTISRDNSKNTLYLQMNSLRAEDTAVYYCAREDSGKYLSLDYWGQGTLVTVSS
VL: B1 VL with T25A, G30T, S31N, S50A, A51S, R53T, T91S, N93I, W96L
notes: tested as expressed and purified mAb
B4: SIGLEC-8-59 (antibody, human IgG1, kappa, V domains shown)
VH: EVQLLESGGGLVQPGGSLRLSCAASGFTFTSYAVSWVRQAPGKGLEWVSSISGSGGSAYYADSVKGRFTISRDNSKNTLYLQMNSLRAEDTAVYYCARDTVGYGMDVWGQGTLVTVSS
VL: B2 VL with N28T, Y30S, T31G, N34S, D50S, S53R, S91G, S92Y, Y96L
notes: as for B3
B5: SIGLEC-8-20 (antibody, human IgG1, kappa, V domains shown)
VH: EVQLLESGGGLVQPGGSLRLSCAASGFTFSSFDMTWVRQAPGKGLEWVSSISGGGGSTYYADSVKGRFTISRDNSKNTLYLQMNSLRAEDTAVYYCAREDGSGSYSMDVWGQGTLVTVSS
VL: B1 VL with T25A, G30D, S31N, N34H, S50A, R53N, S56G, T91S, N93K, W96V
notes: as for B3
B6: SIGLEC-8-52 (antibody, human IgG1, kappa, V domains shown)
VH: B3 VH with S30R, T31S, D32Y, A33V, T50S, V51I, G53L, A56G, D100E, Y109H
VL: B1 VL with T25A, I29V, G30S, S31N, Y32F, S50A, R53N, S56G, N93S, W96I
notes: as for B3
B7: SIGLEC-8-45 (antibody, human IgG1, kappa, V domains shown)
VH: EVQLLESGGGLVQPGGSLRLSCAASGFTFSSGAMSWVRQAPGKGLEWVSTISGSGASTYYADSVKGRFTISRDNSKNTLYLQMNSLRAEDTAVYYCAREGSSSWNAFDIWGQGTLVTVSS
VL: B1 VL with T25A, S28T, G30A, S31N, S50A, R53N, S56D, T91S, W96I
notes: as for B3
B8: SIGLEC-8-60 (antibody, human IgG1, kappa, V domains shown)
VH: B3 VH with F29L, T31N, D32Y, S35T, D100N
VL: B1 VL with T25A, S28N, G30A, S50A, A51T, R53D, E55Q, T94I, W96L
notes: as for B3
B9: SIGLEC-8-30 (antibody, human IgG1, kappa, V domains shown)
VH: EVQLLESGGGLVQPGGSLRLSCAASGFTFSHYALSWVRQAPGKGLEWVSIISGSGDTTYYADSVKGRFTISRDNSKNTLYLQMNSLRAEDTAVYYCAKATYFYDSSGYRRATYFDYWGQGTLVTVSS
VL: DIQMTQSPSSLSASVGDRVTITCRASQGISRHLNWYQQKPGKAPKLLIYAESTLQSGVPSRFSGSGSGTDFTLTISSLQPEDFATYYCQQTYTLPYTFGGGTKVEIKR
notes: as for B3
B10: SIGLEC-8-61 (antibody, human IgG1, kappa, V domains shown)
VH: EVQLLESGGGLVQPGGSLRLSCAASGFTFSSSAMTWVRQAPGKGLEWVTAISESGGSTYYADSVKGRFTISRDNSKNTLYLQMNSLRAEDTAVYYCAREGGDYYYGIDVWGQGTLVTVSS
VL: B2 VL with S26G, N28S, Y30N, T31R, D50G, S53N, H55Q, S92F, S93T, Y96L
notes: tested as expressed and purified mAb; also called SIGLEC-61
B11: SIGLEC-8-4 (antibody, human IgG1, kappa, V domains shown)
VH: B7 VH with T28S, G32D, T50G, S54G, A56G, T58A, S101A, S103N, W104Y, N105A
VL: B2 VL with G16E, S26G, N28S, Y30T, T31P, D50A, A51T, S92H, T94S, Y96L
notes: as for B3
B12: SIGLEC-8-53 (antibody, human IgG1, kappa, V domains shown)
VH: B3 VH with T31S, D32S, S35A, T50E, V51I, G53D, A56G, D100E, Y109H
VL: B2 VL with N28T, Y30I, T31N, D50G, S53N, L54V, H55Q, S92Y, S93V, Y96P
notes: as for B3

Where a chain is given by its changes, count along the chain named.

T3 sequence (Q9NYZ4 17-363 limits assumed): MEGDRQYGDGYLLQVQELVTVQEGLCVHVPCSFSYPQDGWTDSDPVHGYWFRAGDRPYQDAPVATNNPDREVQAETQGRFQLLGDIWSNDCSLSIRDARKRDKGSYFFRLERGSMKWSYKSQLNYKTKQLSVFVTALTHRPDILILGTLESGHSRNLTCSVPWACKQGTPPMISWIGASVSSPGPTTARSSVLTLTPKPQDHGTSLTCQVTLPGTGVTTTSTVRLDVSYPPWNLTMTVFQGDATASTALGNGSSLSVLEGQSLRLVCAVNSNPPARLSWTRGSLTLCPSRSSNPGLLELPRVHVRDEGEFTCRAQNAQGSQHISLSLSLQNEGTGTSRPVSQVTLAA

The first experiment concerns the target T1, mouse CD117 (mouse, UniProt P05532).
T1 construct: antigen of the Carterra SPR kinetics; also called murine CD117
T1 sequence (receptor, looked up): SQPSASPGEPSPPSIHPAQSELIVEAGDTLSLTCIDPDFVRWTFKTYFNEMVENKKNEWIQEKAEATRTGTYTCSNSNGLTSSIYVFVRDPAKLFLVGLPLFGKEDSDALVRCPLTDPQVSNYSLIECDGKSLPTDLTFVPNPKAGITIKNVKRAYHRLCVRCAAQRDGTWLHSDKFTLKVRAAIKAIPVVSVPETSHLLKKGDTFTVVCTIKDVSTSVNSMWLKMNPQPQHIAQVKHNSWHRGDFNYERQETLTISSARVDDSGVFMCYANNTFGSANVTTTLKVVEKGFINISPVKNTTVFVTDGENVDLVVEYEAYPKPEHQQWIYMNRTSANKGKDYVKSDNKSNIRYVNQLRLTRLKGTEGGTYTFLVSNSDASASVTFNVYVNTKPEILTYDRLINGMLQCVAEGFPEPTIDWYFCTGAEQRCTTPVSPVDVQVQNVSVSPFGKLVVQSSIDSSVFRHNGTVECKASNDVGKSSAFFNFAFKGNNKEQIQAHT
The experiment in a line: Carterra SPR, mouse CD117. As for the experimental part: To further evaluate the antibodies discovered during the screens, 21 clones were selected for detailed characterization and were analyzed for target binding kinetics by a Carterra SPR instrument. The binding kinetics of the anti-CD117 antibodies for human CD117, cynomolgus monkey CD117, and murine CD117 are shown in FIG. 29A-29B.
On to B1, for which the binding result is given as “no binding”.

Take B2: the binding result is given as “no binding”.

In another experiment the target is T2, SIGLEC-8 transiently expressed on cells (UniProt Q9NYZ4 17-499, limits assumed).
T2 construct: whole, on cells; Two cassettes are described (P2A mVenus and direct mVenus fusion); also called the transient line; pTT5-SIGLEC-8 P2A mVenus
T2 sequence (Q9NYZ4 17-499 limits assumed): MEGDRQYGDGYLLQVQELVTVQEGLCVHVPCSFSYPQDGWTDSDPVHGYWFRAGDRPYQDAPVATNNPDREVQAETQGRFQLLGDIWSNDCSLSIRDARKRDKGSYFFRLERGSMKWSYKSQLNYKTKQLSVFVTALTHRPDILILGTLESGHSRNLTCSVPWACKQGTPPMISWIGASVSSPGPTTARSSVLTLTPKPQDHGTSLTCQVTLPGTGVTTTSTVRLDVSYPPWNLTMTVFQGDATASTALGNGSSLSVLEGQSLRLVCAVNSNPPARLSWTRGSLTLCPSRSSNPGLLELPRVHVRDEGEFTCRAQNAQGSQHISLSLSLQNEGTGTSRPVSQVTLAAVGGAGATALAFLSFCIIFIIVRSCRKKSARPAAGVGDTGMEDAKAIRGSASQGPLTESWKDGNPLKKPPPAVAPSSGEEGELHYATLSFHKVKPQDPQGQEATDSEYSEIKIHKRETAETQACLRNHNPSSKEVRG
Kind of experiment: cell binding titration, transient SIGLEC-8 line.
As to B3, the EC50 was determined as 1.33 nM.

For B4, the EC50 is 0.939 nM.

Molecule B5 came in with an EC50 of 0.972 nM.

For B6, a half-maximal effect (EC50) was put at 4.07 nM.

In turn, B7 displayed an EC50 of 1.81 nM.

B8 registered an EC50 of 0.653 nM.

For B9, the EC50 stood at 1.5 nM.

In turn, B10 yielded an EC50 of 0.494 nM.

With B11, the EC50 was found to be 2.38 nM.

Turning to B12, the concentration for a half-maximal effect (EC50) came out at 0.69 nM.

Another experiment addresses T3, Sialic acid-binding immunoglobulin-like lectin 8 (SIGLEC-8), antigen of the Carterra SPR studies (UniProt Q9NYZ4 17-363, limits assumed). The experiment in a line: Carterra SPR. An outline of the steps: (§1)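 On a Carterra instrument, surface plasmon resonance was used to measure how antibodies bind SIGLEC-8, with rate constants and dissociation constants as read-outs. The antibodies were taken from synthetic libraries by bead-based panning and clonal ELISA screening, then expressed and purified.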
In the case of B3, binding was put at a Kd of 0.37 nM.

B4 came in with a Kd of 31.2 nM.

B5 returned a Kd of 0.0764 nM.

B6 yielded a Kd of 0.733 nM.

Regarding B7, the Kd came out at 0.574 nM.

As for B8, binding was characterised by a dissociation constant (Kd) of 0.895 nM.

For the molecule B9, the Kd stood at 0.856 nM.

B10 came in with a Kd of 0.0942 nM.

Consider B11, for which binding was put at a Kd of 0.189 nM.

B12: the Kd is 0.185 nM.

A further experiment concerns the target T3, Sialic acid-binding immunoglobulin-like …. The experiment in a line: Carterra SPR kinetics, summary table. An outline of the steps: as §1
Molecule B3 came in with a koff of 5.63e-05 s⁻¹ and a kon of 152000 M⁻¹ s⁻¹.

For the molecule B5, the koff stood at 3.4e-05 s⁻¹ and the kon stood at 445000 M⁻¹ s⁻¹.

The molecule B6 gave a koff of 6.22e-05 s⁻¹ and a kon of 84900 M⁻¹ s⁻¹.

In turn, B7 returned a koff of 8.37e-05 s⁻¹ and a kon of 146000 M⁻¹ s⁻¹.

For B8, the koff worked out at 0.000116 s⁻¹ and the kon is 129000 M⁻¹ s⁻¹.

As to B9, the off-rate constant (koff) is 0.000124 s⁻¹ and the kon turned out to be 145000 M⁻¹ s⁻¹.

As to B10, the koff is 3.67e-05 s⁻¹ and the kon was determined as 390000 M⁻¹ s⁻¹.

In turn, B11 came in with a koff of 3.12e-05 s⁻¹ and an on-rate constant (kon) of 165000 M⁻¹ s⁻¹.

B12 gave a koff of 4.78e-05 s⁻¹ and a kon of 259000 M⁻¹ s⁻¹.

A word on the EC50: it is the concentration that produces a half-maximal response. A higher EC50 goes with a need for much substance. By Kd is commonly meant the free concentration of one partner at which half of the binding sites on the other are occupied at equilibrium, for simple one-to-one binding. What is called koff is the rate constant with which the complex falls apart. Read a low koff as slow dissociation. One may read the kon as a measure of how fast the partners come together. Lower therefore signals slow association.
